Literature values as cited in paper PMC4569521 (Journal of molecular biology, 2015).

Target: ClpXP (Escherichia coli, UniProt P0A6G7+P0A6H1)
Conditions: MuA monomers; ref [23]

Sequence of ClpXP (P0A6H1 whole entry): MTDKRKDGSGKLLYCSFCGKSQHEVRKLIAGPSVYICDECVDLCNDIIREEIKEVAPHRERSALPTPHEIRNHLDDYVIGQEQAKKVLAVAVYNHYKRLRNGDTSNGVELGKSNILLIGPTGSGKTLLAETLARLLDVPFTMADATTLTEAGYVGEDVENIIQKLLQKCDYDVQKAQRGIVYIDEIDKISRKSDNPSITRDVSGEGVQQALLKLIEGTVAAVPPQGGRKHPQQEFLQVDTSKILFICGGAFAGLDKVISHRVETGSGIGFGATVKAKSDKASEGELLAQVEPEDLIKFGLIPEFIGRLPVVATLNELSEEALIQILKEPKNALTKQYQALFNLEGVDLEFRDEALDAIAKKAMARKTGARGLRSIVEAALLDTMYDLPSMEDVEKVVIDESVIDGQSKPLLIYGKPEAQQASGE
Sequence of ClpXP (P0A6G7 15-207 partner): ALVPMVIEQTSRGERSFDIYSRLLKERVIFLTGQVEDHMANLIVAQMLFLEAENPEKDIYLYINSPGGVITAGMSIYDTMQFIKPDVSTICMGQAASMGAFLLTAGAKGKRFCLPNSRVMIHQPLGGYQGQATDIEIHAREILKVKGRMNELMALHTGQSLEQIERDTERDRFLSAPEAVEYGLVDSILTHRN

For “MuA monomers: Phage Mu transposase, ~75kDa, three domains; monomer in solution”, the “appKM for degradation by ClpXP” value is listed as ~ 10 μM.
